Data on six molecules can be found in patent US9958461B2, “Detection of protein to protein interactions” (THE GOVERNING COUNCIL OF THE UNIVERSITY OF TORONTO, priority 2013, dated 2018).

Experiment [1] concerns the target T1, EGFR-Wt (Homo sapiens, UniProt P00533).
T1 construct: with the advantage of testing full-length integral membrane proteins; (GGGGS)2 linker-Cub (human ubiquitin aa 35-76)-GAL4(1-147)-mNFkB(364-550) (C); expressed in transfected cells
Kind of experiment: MaMTH EGFR-interactor screen, lentiviral preys against EGFR-wildtype bait (interaction score). Format: cell-based. The settings on record: MaMTH interaction score of prey with EGFR-Wt bait, mean. The procedure:
(§1) After lentivirus harvest, target cells (stable 5×GAL4UAS-luciferase reporter-HEK293T cells) were infected at a multiplicity of infection (MOI) of around 0.3-0.4 to ensure single copy integration per cell. Cells were selected in puromycin for at least 48 h and transfected with either EGFR-wildtype or EGFR-L858R baits in triplicates. 24 h after transfection, cells were lysed and luciferase assays performed. On each set of interaction assays, various negative controls were included. To calculate a MaMTH-interaction scores, negative controls were averaged and the fold-change of luciferase activity compared to the averaged controls was calculated and defined as the interaction score.
(§2) Each set of experiments contains a defined set of negative controls in at least three replicates. Negative controls were chosen as such that there is a range of controls showing high-background luciferase activity (normally cytosolic proteins: Fabp5, Pex19) as well as medium-background luciferase activity (membrane-bound interactors: Pex7, GABBR2). Negative controls were averaged and the fold-change of luciferase activity was calculated. Using this method, we have a stringent cut-off and chose an interaction score >1 to be interacting proteins.
(§3) Our cut-off of 1 is based on fold-change difference in luciferase activity over averaged negative controls. Negative controls include cytosolic preys (which tend to promiscuously bind to many proteins), plasma membrane- and peroxisomal-prey proteins. In general, we chose stringent conditions by testing preys that tend to have high luciferase background with any bait tested, in order to generate high-confidence interaction data. […] Phosphorylated tyrosine residues on the receptor are typically docking sites for downstream cytoplasmic targets and recognized through SH2 or PTB domains^43.

In experiment [2] the test system is EGFR-Wt. Described as above. The experiment is classed as cell-based, human. The settings on record: ratio of EGFR-Wt mean to EGFR-L858R mean interaction score. The procedure: as §1, §2, §3
A further experiment has as its target T2, EGFR-L858R (Homo sapiens, UniProt P00533, L858R).
T2 construct: with the advantage of testing full-length integral membrane proteins; (GGGGS)2 linker-Cub (human ubiquitin aa 35-76)-GAL4(1-147)-mNFkB(364-550) (C); expressed in transfected cells
Kind of experiment: MaMTH EGFR-interactor screen, lentiviral preys against EGFR-L858R bait (interaction score). The settings on record: MaMTH interaction score of prey with EGFR-L858R bait. The experiment is classed as cell-based. The procedure:
as §1, §2, §3

B1: STAM (protein, UniProt Q92783 2-540, looked up)
Signal transducing adapter …: PLFATNPFDQDVEKATSEMNTAEDWGLILDICDKVGQSRTGPKDCLRSIMRRVNHKDPHVAMQALTLLGACVSNCGKIFHLEVCSRDFASEVSNVLNKGHPKVCEKLKALMVEWTDEFKNDPQLSLISAMIKNLKEQGVTFPAIGSQAAEQAKASPALVAKDPGTVANKKEEEDLAKAIELSLKEQRQQSTTLSTLYPSTSSLLTNHQHEGRKVRAIYDFEAAEDNELTFKAGEIITVLDDSDPNWWKGETHQGIGLFPSNFVTADLTAEPEMIKTEKKTVQFSDDVQVETIEPEPEPAFIDEDKMDQLLQMLQSTDPSDDQPDLPELLHLEAMCHQMGPLIDEKLEDIDRKHSELSELNVKVMEALSLYTKLMNEDPMYSMYAKLQNQPYYMQSSGVSGSQVYAGPPPSGAYLVAGNAQMSHLQSYSLPPEQLSSLSQAVVPPSANPALPSQQTQAAYPNTMVSSVQGNTYPSQAPVYSPPPAATAAAATADVTLYQNAGPNMPQVPNYNLTSSTLPQPGGSQQPPQPQQPYSQKALL
B1 returned an EGFR-Wt mean with EGFR-Wt [1] of 0.56. The Wt/L858R in the experiment on EGFR-Wt [2] is 0.23. This molecule also returned an EGFR-L858R mean with EGFR-L858R of 2.49.

B2: PLCG2 (protein, UniProt P16885 1-1265, looked up)
1-phosphatidylinositol …: MSTTVNVDSLAEYEKSQIKRALELGTVMTVFSFRKSTPERRTVQVIMETRQVAWSKTADKIEGFLDIMEIKEIRPGKNSKDFERAKAVRQKEDCCFTILYGTQFVLSTLSLAADSKEDAVNWLSGLKILHQEAMNASTPTIIESWLRKQIYSVDQTRRNSISLRELKTILPLINFKVSSAKFLKDKFVEIGAHKDELSFEQFHLFYKKLMFEQQKSILDEFKKDSSVFILGNTDRPDASAVYLHDFQRFLIHEQQEHWAQDLNKVRERMTKFIDDTMRETAEPFLFVDEFLTYLFSRENSIWDEKYDAVDMQDMNNPLSHYWISSSHNTYLTGDQLRSESSPEAYIRCLRMGCRCIELDCWDGPDGKPVIYHGWTRTTKIKFDDVVQAIKDHAFVTSSFPVILSIEEHCSVEQQRHMAKAFKEVFGDLLLTKPTEASADQLPSPSQLREKIIIKHKKLGPRGDVDVNMEDKKDEHKQQGELYMWDSIDQKWTRHYCAIADAKLSFSDDIEQTMEEEVPQDIPPTELHFGEKWFHKKVEKRTSAEKLLQEYCMETGGKDGTFLVRESETFPNDYTLSFWRSGRVQHCRIRSTMEGGTLKYYLTDNLTFSSIYALIQHYRETHLRCAEFELRLTDPVPNPNPHESKPWYYDSLSRGEAEDMLMRIPRDGAFLIRKREGSDSYAITFRARGKVKHCRINRDGRHFVLGTSAYFESLVELVSYYEKHSLYRKMRLRYPVTPELLERYNMERDINSLYDVSRMYVDPSEINPSMPQRTVKALYDYKAKRSDELSFCRGALIHNVSKEPGGWWKGDYGTRIQQYFPSNYVEDISTADFEELEKQIIEDNPLGSLCRGILDLNTYNVVKAPQGKNQKSFVFILEPKQQGDPPVEFATDRVEELFEWFQSIREITWKIDTKENNMKYWEKNQSIAIELSDLVVYCKPTSKTKDNLENPDFREIRSFVETKADSIIRQKPVDLLKYNQKGLTRVYPKGQRVDSSNYDPFRLWLCGSQMVALNFQTADKYMQMNHALFSLNGRTGYVLQPESMRTEKYDPMPPESQRKILMTLTVKVLGARHLPKLGRSIACPFVEVEICGAEYDNNKFKTTVVNDNGLSPIWAPTQEKVTFEIYDPNLAFLRFVVYEEDMFSDPNFLAHATYPIKAVKSGFRSVPLKNGYSEDIELASLLVFCEMRPVLESEEELYSSCRQLRRRQEELNNQLFLYDTHQNLRNANRDALVKEFSVNENQLQLYQEKCNKRLREKRVSNSKFYS
B2 had an EGFR-Wt mean with EGFR-Wt [1] of 3.99. Besides, the Wt/L858R with EGFR-Wt [2] came to 1.64. Also, the EGFR-L858R mean with EGFR-L858R was found to be 2.43.

B3: CTNNA1 (protein, UniProt P35221 2-906, looked up)
Catenin alpha-1: TAVHAGNINFKWDPKSLEIRTLAVERLLEPLVTQVTTLVNTNSKGPSNKKRGRSKKAHVLAASVEQATENFLEKGDKIAKESQFLKEELVAAVEDVRKQGDLMKAAAGEFADDPCSSVKRGNMVRAARALLSAVTRLLILADMADVYKLLVQLKVVEDGILKLRNAGNEQDLGIQYKALKPEVDKLNIMAAKRQQELKDVGHRDQMAAARGILQKNVPILYTASQACLQHPDVAAYKANRDLIYKQLQQAVTGISNAAQATASDDASQHQGGGGGELAYALNNFDKQIIVDPLSFSEERFRPSLEERLESIISGAALMADSSCTRDDRRERIVAECNAVRQALQDLLSEYMGNAGRKERSDALNSAIDKMTKKTRDLRRQLRKAVMDHVSDSFLETNVPLLVLIEAAKNGNEKEVKEYAQVFREHANKLIEVANLACSISNNEEGVKLVRMSASQLEALCPQVINAALALAAKPQSKLAQENMDLFKEQWEKQVRVLTDAVDDITSIDDFLAVSENHILEDVNKCVIALQEKDVDGLDRTAGAIRGRAARVIHVVTSEMDNYEPGVYTEKVLEATKLLSNTVMPRFTEQVEAAVEALSSDPAQPMDENEFIDASRLVYDGIRDIRKAVLMIRTPEELDDSDFETEDFDVRSRTSVQTEDDQLIAGQSARAIMAQLPQEQKAKIAEQVASFQEEKSKLDAEVSKWDDSGNDIIVLAKQMCMIMMEMTDFTRGKGPLKNTSDVISAAKKIAEAGSRMDKLGRTIADHCPDSACKQDLLAYLQRIALYCHQLNICSKVKAEVQNLGGELVVSGVDSAMSLIQAAKNLMNAVVQTVKASYVASTKYQKSQGMASLNLPAVSWKMKAPEKKPLVKREKQDETQTKIKRASQKKHVNPVQALSEFKAMDSI
The molecule B3 returned an EGFR-Wt mean with EGFR-Wt [1] of 2.11. The Wt/L858R in the experiment on EGFR-Wt [2] was found to be 1.58. This molecule also displayed an EGFR-L858R mean with EGFR-L858R of 1.34.

B4: LAT (protein, UniProt O43561 1-262, looked up)
Linker for activation of …: MEEAILVPCVLGLLLLPILAMLMALCVHCHRLPGSYDSTSSDSLYPRGIQFKRPHTVAPWPPAYPPVTSYPPLSQPDLLPIPRSPQPLGGSHRTPSSRRDSDGANSVASYENEGASGIRGAQAGWGVWGPSWTRLTPVSLPPEPACEDADEDEDDYHNPGYLVVLPDSTPATSTAAPSAPALSTPGIRDSAFSMESIDDYVNVPESGESAEASLDGSREYVNVSQELHPGAAKTEPAALSSQEAEEVEEEGAPDYENLQELN
Regarding B4, the EGFR-Wt mean with EGFR-Wt [1] came to 29.54. For the same molecule, the Wt/L858R in the experiment on EGFR-Wt [2] came out at 1.61. For the same molecule, in the experiment with EGFR-L858R, the EGFR-L858R mean worked out at 18.39.

B5: CSK (protein, UniProt P41240 2-450, looked up)
Tyrosine-protein kinase CSK: SAIQAAWPSGTECIAKYNFHGTAEQDLPFCKGDVLTIVAVTKDPNWYKAKNKVGREGIIPANYVQKREGVKAGTKLSLMPWFHGKITREQAERLLYPPETGLFLVRESTNYPGDYTLCVSCDGKVEHYRIMYHASKLSIDEEVYFENLMQLVEHYTSDADGLCTRLIKPKVMEGTVAAQDEFYRSGWALNMKELKLLQTIGKGEFGDVMLGDYRGNKVAVKCIKNDATAQAFLAEASVMTQLRHSNLVQLLGVIVEEKGGLYIVTEYMAKGSLVDYLRSRGRSVLGGDCLLKFSLDVCEAMEYLEGNNFVHRDLAARNVLVSEDNVAKVSDFGLTKEASSTQDTGKLPVKWTAPEALREKKFSTKSDVWSFGILLWEIYSFGRVPYPRIPLKDVVPRVEKGYKMDAPDGCPPAVYEVMKNCWHLDAAMRPSFLQLREQLEHIKTHELHL
Turning to B5, in the experiment with EGFR-Wt [1], the EGFR-Wt mean worked out at 8.40. Besides, the Wt/L858R in the experiment with EGFR-Wt [2] was determined as 1.43. Further, the EGFR-L858R mean with EGFR-L858R is given as 5.86.

B6: CTTN (protein, UniProt Q14247 1-550, looked up)
Src substrate cortactin: MWKASAGHAVSIAQDDAGADDWETDPDFVNDVSEKEQRWGAKTVQGSGHQEHINIHKLRENVFQEHQTLKEKELETGPKASHGYGGKFGVEQDRMDKSAVGHEYQSKLSKHCSQVDSVRGFGGKFGVQMDRVDQSAVGFEYQGKTEKHASQKDYSSGFGGKYGVQADRVDKSAVGFDYQGKTEKHESQRDYSKGFGGKYGIDKDKVDKSAVGFEYQGKTEKHESQKDYVKGFGGKFGVQTDRQDKCALGWDHQEKLQLHESQKDYKTGFGGKFGVQSERQDSAAVGFDYKEKLAKHESQQDYSKGFGGKYGVQKDRMDKNASTFEDVTQVSSAYQKTVPVEAVTSKTSNIRANFENLAKEKEQEDRRKAEAERAQRMAKERQEQEEARRKLEEQARAKTQTPPVSPAPQPTEERLPSSPVYEDAASFKAELSYRGPVSGTEPEPVYSMEAADYREASSQQGLAYATEAVYESAEAPGHYPAEDSTYDEYENDLGITAVALYDYQAAGDDEISFDPDDIITNIEMIDDGWWRGVCKGRYGLFPANYVELRQ
In the experiment with EGFR-Wt [1], B6 showed an EGFR-Wt mean of 33.81. Also, the Wt/L858R in the experiment on EGFR-Wt [2] was determined as 1.53. In the experiment with EGFR-L858R, this molecule showed an EGFR-L858R mean of 22.11.
